Laboratory results taken from article PMC6581795, “Phosphorylation of FANCD2 Inhibits the FANCD2/FANCI Complex and Suppresses the Fanconi Anemia Pathway in the Absence of DNA Damage”.

Experiments:
[1] = target: FANCD2-6A;FANCI (Homo sapiens;Homo sapiens?, UniProt Q9BXW9;Q9NVI1 1-1451;1-1328, S882A;T884A;S886A;S891A;T896A;S898A|); assay: EMSA; untreated; similar to WT; EMSA: 1 nM DNA, 25 mM Tris-HCl pH 7.5, 100 mM NaCl, 1 mM EDTA, 6% glycerol, 1 mM DTT, room temperature 1 h; 4% PAGE 0.4x TBE at 4 C; conditions: protein: recombinant;recombinant; copies: 1;1
[2] = target: FANCD2 WT;FANCI (Homo sapiens;Homo sapiens?, UniProt Q9BXW9;Q9NVI1 1-1451;1-1328, |); assay: EMSA; untreated; EMSA: 1 nM DNA, 25 mM Tris-HCl pH 7.5, 100 mM NaCl, 1 mM EDTA, 6% glycerol, 1 mM DTT, room temperature 1 h; 4% PAGE 0.4x TBE at 4 C; conditions: protein: recombinant;recombinant; copies: 1;1
FANCD2 WT;FANCI, sequence (Q9BXW9 whole entry, chain 1 of 2): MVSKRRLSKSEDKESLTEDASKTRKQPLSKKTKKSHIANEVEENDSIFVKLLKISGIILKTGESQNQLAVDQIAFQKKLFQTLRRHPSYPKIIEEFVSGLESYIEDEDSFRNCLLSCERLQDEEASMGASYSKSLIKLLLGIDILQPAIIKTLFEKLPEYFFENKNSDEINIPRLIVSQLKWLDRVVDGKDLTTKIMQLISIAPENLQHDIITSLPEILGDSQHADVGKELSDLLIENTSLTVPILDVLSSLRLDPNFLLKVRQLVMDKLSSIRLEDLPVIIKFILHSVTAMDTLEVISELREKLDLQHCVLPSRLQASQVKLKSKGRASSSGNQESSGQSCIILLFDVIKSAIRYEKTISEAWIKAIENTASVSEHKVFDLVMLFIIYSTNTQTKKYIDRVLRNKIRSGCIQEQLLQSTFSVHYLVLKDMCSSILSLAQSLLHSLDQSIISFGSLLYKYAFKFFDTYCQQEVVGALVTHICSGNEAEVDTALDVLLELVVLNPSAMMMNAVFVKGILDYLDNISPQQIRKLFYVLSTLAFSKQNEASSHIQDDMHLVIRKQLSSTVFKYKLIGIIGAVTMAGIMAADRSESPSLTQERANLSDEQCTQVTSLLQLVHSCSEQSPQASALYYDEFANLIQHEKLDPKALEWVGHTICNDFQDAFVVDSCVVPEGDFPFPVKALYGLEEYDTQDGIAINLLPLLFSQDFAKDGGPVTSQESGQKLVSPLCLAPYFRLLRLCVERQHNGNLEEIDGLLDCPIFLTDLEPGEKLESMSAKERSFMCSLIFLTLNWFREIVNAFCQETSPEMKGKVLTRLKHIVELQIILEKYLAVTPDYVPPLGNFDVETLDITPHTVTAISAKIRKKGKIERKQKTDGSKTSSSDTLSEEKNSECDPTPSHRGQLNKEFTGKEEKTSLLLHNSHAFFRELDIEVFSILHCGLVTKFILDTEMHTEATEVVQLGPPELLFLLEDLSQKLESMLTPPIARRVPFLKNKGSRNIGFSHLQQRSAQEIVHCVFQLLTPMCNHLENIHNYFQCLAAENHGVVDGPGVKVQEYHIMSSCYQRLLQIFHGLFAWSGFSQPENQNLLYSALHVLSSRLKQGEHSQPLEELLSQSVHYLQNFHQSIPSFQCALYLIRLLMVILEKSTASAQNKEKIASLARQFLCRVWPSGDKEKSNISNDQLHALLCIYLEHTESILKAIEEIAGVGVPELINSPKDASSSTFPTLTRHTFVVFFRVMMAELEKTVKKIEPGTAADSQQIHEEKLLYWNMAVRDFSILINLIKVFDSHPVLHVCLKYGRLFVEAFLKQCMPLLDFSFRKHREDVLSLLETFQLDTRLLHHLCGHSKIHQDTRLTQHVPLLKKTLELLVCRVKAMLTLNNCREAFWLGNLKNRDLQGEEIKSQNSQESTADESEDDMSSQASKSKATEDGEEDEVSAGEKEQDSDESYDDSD
FANCD2 WT;FANCI, sequence (Q9NVI1 whole entry, chain 2 of 2): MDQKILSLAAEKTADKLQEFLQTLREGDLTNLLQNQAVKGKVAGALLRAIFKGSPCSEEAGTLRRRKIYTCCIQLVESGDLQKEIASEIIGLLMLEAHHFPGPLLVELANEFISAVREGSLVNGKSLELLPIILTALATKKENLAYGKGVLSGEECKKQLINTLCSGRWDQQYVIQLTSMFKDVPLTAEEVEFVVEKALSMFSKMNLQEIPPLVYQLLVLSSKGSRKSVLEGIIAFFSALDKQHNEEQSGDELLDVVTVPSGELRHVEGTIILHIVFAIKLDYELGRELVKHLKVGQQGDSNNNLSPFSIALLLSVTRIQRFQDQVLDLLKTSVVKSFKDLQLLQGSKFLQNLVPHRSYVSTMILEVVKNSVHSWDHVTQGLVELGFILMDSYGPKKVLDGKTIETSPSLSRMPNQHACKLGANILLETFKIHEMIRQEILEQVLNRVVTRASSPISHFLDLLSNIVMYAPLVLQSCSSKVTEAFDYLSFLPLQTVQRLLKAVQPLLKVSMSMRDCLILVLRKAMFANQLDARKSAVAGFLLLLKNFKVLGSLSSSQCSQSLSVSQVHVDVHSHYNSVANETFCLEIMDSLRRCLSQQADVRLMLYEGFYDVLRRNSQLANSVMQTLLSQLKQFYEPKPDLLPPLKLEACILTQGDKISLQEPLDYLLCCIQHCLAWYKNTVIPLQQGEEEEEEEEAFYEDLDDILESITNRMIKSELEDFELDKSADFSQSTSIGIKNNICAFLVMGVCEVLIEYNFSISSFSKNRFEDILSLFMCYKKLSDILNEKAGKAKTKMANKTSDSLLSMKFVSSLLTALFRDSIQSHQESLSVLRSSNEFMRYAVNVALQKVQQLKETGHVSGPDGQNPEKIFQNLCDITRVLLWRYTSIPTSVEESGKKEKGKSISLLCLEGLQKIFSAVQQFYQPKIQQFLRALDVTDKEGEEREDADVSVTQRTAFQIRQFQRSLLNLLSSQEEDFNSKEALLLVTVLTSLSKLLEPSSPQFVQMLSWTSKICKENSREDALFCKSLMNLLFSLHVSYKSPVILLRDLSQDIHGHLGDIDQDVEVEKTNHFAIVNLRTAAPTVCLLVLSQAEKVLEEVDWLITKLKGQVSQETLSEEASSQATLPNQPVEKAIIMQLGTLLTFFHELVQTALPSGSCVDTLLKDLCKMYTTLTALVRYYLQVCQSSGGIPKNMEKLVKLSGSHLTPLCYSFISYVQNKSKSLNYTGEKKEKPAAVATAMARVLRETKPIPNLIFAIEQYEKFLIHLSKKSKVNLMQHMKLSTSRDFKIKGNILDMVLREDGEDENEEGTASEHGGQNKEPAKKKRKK

FANCD2-6A;FANCI, sequence (Q9BXW9 whole entry S882A/T884A/S886A/S891A/T896A/S898A, chain 1 of 2): as the sequence (Q9BXW9 whole entry, chain 1 of 2) above, with S882A, T884A, S886A, S891A, T896A, S898A counted along it
FANCD2-6A;FANCI, sequence (Q9NVI1 whole entry, stated change not applied, chain 2 of 2): as the sequence (Q9NVI1 whole entry, chain 2 of 2) above

B1: ICL14 Y-shaped DNA (mixed)
DNA 1: CATTGTGAATTCGCCTCTCTGTCTAGCCGAAGCTCGAAACGATCTTGTGC
DNA 2: GTCCATCAAAGTTCGACTGTGCGGCTAGACAGAGAGGCGAATTCACAATG
B1: binds [1]; binds [2].
